Reference: patent US20260250318A1, “COMPOSITIONS AND METHODS FOR CROSSING THE BLOOD BRAIN BARRIER” (VOYAGER THERAPEUTICS, INC., priority 2022, published 2026)

What was measured:
[1] = tested on: brain; experiment: NGS fold enrichment of AAV capsid variant library, second passage in NHPs; type: in vivo, NHP; conditions: second passage (P2) in NHPs
Source text: A TRACER based method as described in WO2020072683, WO 2021/202651, and WO2021230987, the contents of which are herein incorporated by reference in their entirety, was used to generate the AAV capsid variants described herein. An orthogonal evolution approach was combined with a high throughput screening by NGS. Briefly, the library of AAV capsid variants was generated using a sliding window approach, where 6 amino acid sequences were inserted into 8 different positions across loop IV of AAV9, including immediately subsequent to positions 453, 454, 455, 456, 457, 458, 459, and 460, relative to a reference sequence numbered according to SEQ ID NO: 138. The initial library was passed twice through non-human primates (NHP, 2-4 years of age). After the second passage (e.g., 28 days post injection into two NHPs), RNA was extracted from six brain regions. […]
A second cross-species evolution screen was performed using an AAV capsid variant library with a modification in loop IV introduced as described above and passaging it once through NHPs (passage 1) and then subsequently injected it into two different strains of mice (passage 2), C57Bl/6 and BALB/c. The fold-enrichment for each variant in the brain of each mouse species was calculated by systematic NGS enrichment analysis following RNA recovery and RT-PCR amplification. […]

[2] = tested on: brain; experiment: Second cross-species screen, passage 2 in C57Bl/6 mice after first passage in NHPs; type: in vivo; conditions: P2 in C57Bl/6 after first passage in NHPs
Procedure: A second cross-species evolution screen was performed using an AAV capsid variant library with a modification in loop IV introduced as described above and passaging it once through NHPs (passage 1) and then subsequently injected it into two different strains of mice (passage 2), C57Bl/6 and BALB/c. The fold-enrichment for each variant in the brain of each mouse species was calculated by systematic NGS enrichment analysis following RNA recovery and RT-PCR amplification. The fold enrichment values in the second passage in mice were compared to those fold enrichment values from the second pass that was performed in NHPs as described above. […] Further, 10 of these 12 variants comprised the SPH motif and a positive residue in one of the next three subsequent residues (Table 10).

[3] = tested on: brain; experiment: Second cross-species screen, synthetic library passage 3 in C57Bl/6 mice; type: in vivo; conditions: third passage (P3)
Procedure: There were approximately 500 variants in this synthetic library. This synthetic library was then injected back into both strains of mice (C57Bl/6 and BALB/c; passage 3). RNA was recovered from the mouse brains, RT-PCR amplification was performed, and fold-enrichment relative to wild-type AAV9 was calculated by NGS analysis, which is provided in Table 11.

[4] = target: T1, isoform 1 (Alkaline phosphatase, placental-like 2 (ALPPL2)) (Homo sapiens, UniProt P10696); experiment: Transduction assay in HEK 293T cells expressing isoform 1; type: cell-based; conditions: for Luciferase Activity (RLU): Table 30, Isoform 1 transfected cells; for increase in transduction in cells expressing isoform 1: luciferase activity (RLU)
T1 construct: expressed in transfected cells; host or cells: HEK 293T
T1 sequence (P10696 20-503): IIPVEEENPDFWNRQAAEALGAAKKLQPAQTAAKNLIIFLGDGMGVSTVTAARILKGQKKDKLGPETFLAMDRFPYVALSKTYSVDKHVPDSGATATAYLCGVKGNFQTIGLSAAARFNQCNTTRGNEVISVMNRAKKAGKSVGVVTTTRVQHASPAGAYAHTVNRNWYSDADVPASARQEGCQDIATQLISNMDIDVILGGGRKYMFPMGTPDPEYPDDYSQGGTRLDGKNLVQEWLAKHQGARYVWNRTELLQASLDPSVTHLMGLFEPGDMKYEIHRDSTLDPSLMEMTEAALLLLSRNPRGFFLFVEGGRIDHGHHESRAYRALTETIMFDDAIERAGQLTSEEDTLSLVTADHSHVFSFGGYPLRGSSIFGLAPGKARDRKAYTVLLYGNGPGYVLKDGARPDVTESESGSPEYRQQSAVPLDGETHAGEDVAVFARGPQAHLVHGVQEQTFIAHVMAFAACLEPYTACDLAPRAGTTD
Source text: (§1) Three isoforms of ALPL exist, isoform 1 (Alkaline phosphatase, placental-like 2 (ALPPL2), NM_031313, which is incorporated by reference herein), isoform 2 (alkaline phosphatase, placental (ALPP), NM_001632, which is incorporated by reference herein), and isoform 3 (alkaline phosphatase, intestinal (ALPLI), NM_001631, which is incorporated by reference herein), that can also be expressed on cell surfaces via a GPI-anchor. Isoform 1 is 56.25% identical and 72.54% similar (gaps: 4.17%) to ALPL, isoform 2 is 54.96% identical and 71.37% similar (gaps: 2.29%) to ALPL, and isoform 3 is 55.98% identical and 72.11% similar (gaps: 3.04%) to ALPL. The transduction assay described above was repeated with the three isoforms. HEK 293T cells were transfected via calcium phosphate transfection with a plasmid expressing ALPL, isoform 1 of ALPL, isoform 2 of ALPL, isoform 3 of ALPL, an AAVR positive control, or a pCMV6 negative control. […] At 24-hours post-transduction, luciferase activity (RLU) was measured to quantify AAV cellular transduction.

[5] = target: T2, isoform 2 (alkaline phosphatase, placental (ALPP)) (Homo sapiens, UniProt P05187); experiment: Transduction assay in HEK 293T cells expressing isoform 2; type: cell-based; conditions: for Luciferase Activity (RLU): Table 30, Isoform 2 transfected cells; for increase in transduction in cells expressing isoform 2: luciferase activity (RLU)
T2 construct: expressed in transfected cells; host or cells: HEK 293T
T2 sequence (P05187 23-506): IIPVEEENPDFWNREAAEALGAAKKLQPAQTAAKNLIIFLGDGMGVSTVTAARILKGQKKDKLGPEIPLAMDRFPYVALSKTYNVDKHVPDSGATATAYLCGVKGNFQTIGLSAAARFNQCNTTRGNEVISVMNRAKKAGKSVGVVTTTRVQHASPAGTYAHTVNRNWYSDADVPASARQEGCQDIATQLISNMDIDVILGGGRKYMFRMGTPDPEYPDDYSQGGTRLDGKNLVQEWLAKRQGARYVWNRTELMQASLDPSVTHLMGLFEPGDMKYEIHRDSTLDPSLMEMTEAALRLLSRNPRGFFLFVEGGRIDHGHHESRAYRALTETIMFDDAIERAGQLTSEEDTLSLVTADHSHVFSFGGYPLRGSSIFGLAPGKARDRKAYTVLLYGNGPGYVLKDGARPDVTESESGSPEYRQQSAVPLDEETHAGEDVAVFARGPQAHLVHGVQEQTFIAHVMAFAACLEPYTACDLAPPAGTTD
Source text: as §1

[6] = target: T3, ALPL transcript variant 2 that lacks the ER signal (Homo sapiens, UniProt P05186); experiment: Transduction assay in HEK 293T cells expressing ALPL with deletion of the ER localization signal; type: cell-based; conditions: luciferase, relative to pCMV6
T3 construct: expressed in transfected cells; host or cells: HEK 293T
T3 sequence (P05186 1-469 isoform P05186-3): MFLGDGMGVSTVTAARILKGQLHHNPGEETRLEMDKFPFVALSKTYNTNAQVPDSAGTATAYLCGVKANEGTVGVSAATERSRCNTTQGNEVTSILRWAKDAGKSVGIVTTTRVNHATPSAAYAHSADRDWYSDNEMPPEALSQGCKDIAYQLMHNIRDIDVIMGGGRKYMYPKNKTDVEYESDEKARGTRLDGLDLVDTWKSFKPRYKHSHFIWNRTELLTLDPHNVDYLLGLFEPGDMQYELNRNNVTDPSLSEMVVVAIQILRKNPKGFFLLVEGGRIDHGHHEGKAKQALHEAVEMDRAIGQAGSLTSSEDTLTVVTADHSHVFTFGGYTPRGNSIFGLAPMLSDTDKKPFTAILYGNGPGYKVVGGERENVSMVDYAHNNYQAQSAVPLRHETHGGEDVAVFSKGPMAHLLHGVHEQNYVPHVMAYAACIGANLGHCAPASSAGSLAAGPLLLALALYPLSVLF
Procedure: To determine if deletion of the endoplasmic reticulum (ER) localization signal of ALPL affected transduction of the TTM-001 and TTM-002 capsid variants, HEK 293T cells were transfected via calcium phosphate transfection with a plasmid expressing ALPL, ALP with a deletion of the ER localization signal (ALPL transcript variant 2 that lacks the ER signal (NM_001127501, which is incorporated by reference herein)), or a pCMV6 negative control. At 24 hours post-transfection, the HEK 293T cells expressing the ALPL receptor were transduced with an AAV particle comprising the TTM-001 capsid variant, the TTM-002 capsid variant, or an AAV9 capsid control, expressing a GFP payload. At 24-hours post-transduction, luciferase activity (RLU) was measured to quantify AAV cellular transduction. Data was normalized to fold change in luciferase activity (RLU) compared to the pCMV6 control.

Molecule	Fold enrichment over AAV9 in NHPP2 [1] [fold]	Fold enrichment over AAV9 in C57Bl/6 P2 [2] [fold]	Fold enrichment over AAV9 in C57Bl/6 [3] [fold]	Luciferase Activity (RLU) [4]	increase in transduction in cells expressing isoform 1 [4]	Luciferase Activity (RLU) [5]	increase in transduction in cells expressing isoform 2 [5]	increase in transduction in cells expressing ALPL with deleted ER localization signal [6]
TTM-001: AAV9 capsid variant comprising SPHSKA (SEQ ID NO: 941) in loop IV (protein) chain 1: MAADGYLPDWLEDNLSEGIREWWALKPGAPQPKANQQHQDNARGLVLPGYKYLGPGNGLDKGEPVNAADAAALEHDKAYDQQLKAGDNPYLKYNHADAEFQERLKEDTSFGGNLGRAVFQAKKRLLEPLGLVEEAAKTAPGKKRPVEQSPQEPDSSAGIGKSGAQPAKKRLNFGQTGDTESVPDPQPIGEPPAAPSGVGSLTMASGGGAPVADNNEGADGVGSSSGNWHCDSQWLGDRVITTSTRTWALPTYNNHLYKQISNSTSGGSSNDNAYFGYSTPWGYFDFNRFHCHFSPRDWQRLINNNWGFRPKRLNFKLFNIQVKEVTDNNGVKTIANNLTSTVQVFTDSDYQLPYVLGSAHEGCLPPFPADVFMIPQYGYLTLNDGSQAVGRSSFYCLEYFPSQMLRTGNNFQFSYEFENVPFHSSYAHSQSLDRLMNPLIDQYLYYLSKTINGSGSPHSKAQNQQTLKFSVAGPSNMAVQGRNYIPGPSYRQQRVSTTVTQNNNSEFAWPGASSWALNGRNSLMNPGPAMASHKEGEDRFFPLSGSLIFGKQGTGRDNVDADKVMITNEEEIKTTNPVATESYGQVATNHQSAQAQAQTGWVQNQGILPGMVWQDRDVYLQGPIWAKIPHTDGNFHPSPLMGGFGMKHPPPQILIKNTPVPADPPTAFNKDKLNSFITQYSTGQVSVEIEWELQKENSKRWNPEIQYTSNYYKSNNVEFAVNTEGVYSEPRPIGTRYLTRNL chain 2: GSGSPHSKAQNQQT	56.33	14.48	65.853	4,072 RLU	did not occur	7,456 RLU	did not occur	did not occur
TTM-002: AAV9 capsid variant comprising HDSPHK (SEQ ID NO: 2) in loop IV (protein) chain 1: MAADGYLPDWLEDNLSEGIREWWALKPGAPQPKANQQHQDNARGLVLPGYKYLGPGNGLDKGEPVNAADAAALEHDKAYDQQLKAGDNPYLKYNHADAEFQERLKEDTSFGGNLGRAVFQAKKRLLEPLGLVEEAAKTAPGKKRPVEQSPQEPDSSAGIGKSGAQPAKKRLNFGQTGDTESVPDPQPIGEPPAAPSGVGSLTMASGGGAPVADNNEGADGVGSSSGNWHCDSQWLGDRVITTSTRTWALPTYNNHLYKQISNSTSGGSSNDNAYFGYSTPWGYFDFNRFHCHFSPRDWQRLINNNWGFRPKRLNFKLFNIQVKEVTDNNGVKTIANNLTSTVQVFTDSDYQLPYVLGSAHEGCLPPFPADVFMIPQYGYLTLNDGSQAVGRSSFYCLEYFPSQMLRTGNNFQFSYEFENVPFHSSYAHSQSLDRLMNPLIDQYLYYLSKTINGHDSPHKSGQNQQTLKFSVAGPSNMAVQGRNYIPGPSYRQQRVSTTVTQNNNSEFAWPGASSWALNGRNSLMNPGPAMASHKEGEDRFFPLSGSLIFGKQGTGRDNVDADKVMITNEEEIKTTNPVATESYGQVATNHQSAQAQAQTGWVQNQGILPGMVWQDRDVYLQGPIWAKIPHTDGNFHPSPLMGGFGMKHPPPQILIKNTPVPADPPTAFNKDKLNSFITQYSTGQVSVEIEWELQKENSKRWNPEIQYTSNYYKSNNVEFAVNTEGVYSEPRPIGTRYLTRNL chain 2: GHDSPHKSGQNQQT	33.96	27.15	51.125	1,114 RLU	did not occur	3,465 RLU	did not occur	did not occur
